Assays:
LHD29 chainB [1] = molecular target: T1, LHD29 chainB; experiment: BLI, steady state fit
T1 construct: also called LHD29B; 29B
T1 chain: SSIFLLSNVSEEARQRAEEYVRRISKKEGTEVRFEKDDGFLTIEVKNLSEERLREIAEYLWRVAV
Description: (§1) Biolayer interferometry experiments were performed on an OctetRED96 BLI system (ForteBio, Menlo Park, CA). Streptavidin coated biosensors were first equilibrated for at least 10 minutes in Octet buffer (10 mM HEPES pH 7.4, 150 mM NaCl, 3 mM EDTA, 0.05% Surfactant P20) supplemented with 1 mg/ml Bovine Serum Albumin (SigmaAldrich). Enzymatically biotinylated designs were immobilized onto the biosensors by dipping the biosensors into a solution with 10-50 nM protein for 30-120 s. This was followed by dipping in fresh octet buffer to establish a baseline for 120 s. Titration experiments were performed at 25° C. while rotating at 1,000 r.p.m. Association of designs was allowed by dipping biosensors in solutions containing designed protein diluted in octet buffer until equilibrium was approached followed by dissociation by dipping the biosensors into fresh buffer solution in order to monitor the dissociation kinetics. Steady-state and global kinetic fits were performed using the manufacturer's software (Data Analysis 9.1) assuming a 1:1 binding model.

[2] = molecular target: the molecule itself; experiment: BLI conditions (self-association)
LHD29 chainB [3] = molecular target: T1, LHD29 chainB; experiment: BLI, global kinetic fit, 1:1 model
Description: as §1

[4] = molecular target: the molecule itself; experiment: SEC titration of the C4 hub alone (normalised A230, concentrations per monomer) and negative-stain EM; self-association of hubs

B1: LHD29 chainA (designed binder)
chain: TWQWVLINISEEARQRIEEYVRRISKKEGTEVHFEKDDGVLHIRVKNLHEKRAREIHEYAKRVIL
notes: also called LHD29A; 29A
- Kd (LHD29 chainB [1]): 310 nM
- binding result [2]: binds
- Kd (LHD29 chainB [3]): 985 nM
- koff (LHD29 chainB [3]): 0.00068 s⁻¹
- kon (LHD29 chainB [3]): 690 M⁻¹ s⁻¹

B2: C4-Hub (designed binder)
chain: GNTHFIVVHGSEDAAQLAEELVREISKKEGTEVRFEKKDGLLSIEVKNLSEERQREIQKALQLVQDVANAERVVRERPGSNLAKKALEIILRAAEELAKLDLKASLKAAVRAAEKVVREQPGSELAKKALEIILRAAEELAKLPDPEALHEAVRAAEHVVRSQPGSEAAKEALRIIQEAAELLKESPDPTAIIRAARALLKIARTTGDEEAAKEAIEAAKKAADLARERGDDELVCEALALLVAAQVELLKQQGTSAVEIAKIVARVISEVIRTLKEKGSSYEVICECVARIVAEIVEALKRSGTSAAIIALIVALVISEVIRTLKESGSSFEVILECVIRIVLEIIEALKRSGTSEQDVMLIVMAVLLVVLATLQLSGSGSLEHHHHHH
notes: C4-symmetric homo-oligomeric hub carrying LHD274B; also called C4 53; C4-symmetric hub
- binding result [4]: binds
